Target: OTLD1-RFP (Arabidopsis)
Test: FRET or BRET

B1: LSH10-GFP (natural protein)
chain: MSSPRERGKSLMESSGSEPPVTPSRYESQKRRDWNTFGQYLKNQRPPVPMSHCSCNHVLDFLRYLDQFGKTKVHVPGCMFYGQPEPPAPCTCPLRQAWGSLDALIGRLRAAYEENGGPPETNPFASGAIRVYLREVRECQAKARGIPYKKKKKKKPTPEMGGGREDSSSSSSSFSFS
%AB-FRET (donor dequenching): 13%
